{"source": "patent US20120070446A1", "about": "(AstraZeneca / MedImmune, published 2012)", "key": {"[1]": {"target": "F protein of RSV A2 virus (on virus particles, neutralization assay) (Respiratory Syncytial Virus A2, UniProt P03420 26-574)", "assay": "cell-based or functional assay"}, "[2]": {"target": "T1, HIS-tagged recombinant F protein from RSV Long strain (Respiratory Syncytial Virus Long strain, UniProt P12568 26-524)", "T1 construct": "also called recombinant HIS tagged F protein; recombinant RSV F Long strain containing a poly HIS tag; not shown: poly HIS tag", "T1 sequence (P12568 26-524)": "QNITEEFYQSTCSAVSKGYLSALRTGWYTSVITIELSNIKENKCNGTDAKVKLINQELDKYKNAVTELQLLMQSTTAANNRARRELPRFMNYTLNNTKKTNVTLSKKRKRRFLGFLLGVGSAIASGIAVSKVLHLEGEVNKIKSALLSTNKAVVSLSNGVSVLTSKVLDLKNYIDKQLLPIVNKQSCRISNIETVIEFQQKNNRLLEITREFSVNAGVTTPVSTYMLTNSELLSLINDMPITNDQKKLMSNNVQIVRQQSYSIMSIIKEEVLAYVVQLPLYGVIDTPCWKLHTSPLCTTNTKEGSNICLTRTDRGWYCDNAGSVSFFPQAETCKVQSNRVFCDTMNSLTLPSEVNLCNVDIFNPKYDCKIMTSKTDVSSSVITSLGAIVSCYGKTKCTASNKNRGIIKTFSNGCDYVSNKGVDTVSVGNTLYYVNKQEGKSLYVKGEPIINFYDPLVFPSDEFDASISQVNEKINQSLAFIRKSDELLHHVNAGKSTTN", "assay": "direct ELISA, HIS-tagged F on Ni-NTA HisSorp plates"}}, "data": [{"binder": "palivizumab (antibody, V domains shown) VH: QVTLRESGPALVKPTQTLTLTCTFSGFSLSTSGMSVGWIRQPPGKALEWLADIWWDDKKDYNPSLKSRLTISKDTSKNQVVLKVTNMDPADTATYYCARSMITNWYFDVWGAGTTVTVSS VL: DIQMTQSPSTLSASVGDRVTITCKCQLSVGYMHWYQQKPGKAPKLLIYDTSKLASGVPSRFSGSGSGTEFTLTISSLQPDDFATYYCFQGSGYPFTFGGGTKLEIK", "values": [{"measurement": "IC50 (ng/ml), RSV neutralizing activity, TCID50 culture assay on HEp2 cells with the RSV A2 virus", "setting": "[1]", "result": 152, "unit": "ng/mL"}]}, {"binder": "AM22 (recombinant AM22 mAb, human IgG1/Kappa) (antibody, V domains shown, also called AM22 antibody; AM22 monoclonal antibody) VH: QVQLVQSGAEVKKPGATVKVSCKISGHTLIKLSIHWVRQAPGKGLEWMGGYEGEVDEIFYAQKFQHRLTVIADTATDTVYMELGRLTSDDTAVYFCGTLGVTVTEAGLGIDDYWGQGTLVTVSS VL: EIVLTQSPGTLSLSPGERATLSCRASQIVSRNHLAWYQQKPGQAPRLLIFGASSRATGIPVRFSGSGSGTDFTLTINGLAPEDFAVYYCLSSDSSIFTFGPGTKVDFK", "values": [{"measurement": "binding result", "setting": "[2]", "result": "no binding"}]}]}
